± gives the standard deviation of the averaged measurements.
Tested on: ATP
Assay: switch fluorescence ratio, 500 uM ATP over buffer (Cy3 cluster intensity, sum of 5 cycles each) (fold (ratio)); higher = stronger signal-on switching upon ATP binding; sequences stand for … in TCGTCGGCAGCGTCAGATGTGTATAAGAGACAGTTTTTTTTTTTTTTTTTTTTTTTTT…TC
Settings: aptamer strand: ATP DNA aptamer (quencher-CACCTGGGGGAGTATTGCGGAGGAAGG + anchor), 100 nM annealed; ATP concentration: 500 uM
How it was run: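 Clusters with intensities outside 100-1000 RFU were excluded. The remaining Cy3-labelled switching-strand clusters on a modified Illumina MiSeq flow-cell had been annealed to 100 nM quencher-labelled ATP aptamer and imaged in selection buffer, then after 15 min with 500 uM ATP at 22 °C, for five cycles separated by NaOH stripping and re-annealing. The fluorescence ratio, averaged per switch-domain sequence, is each cluster's summed target-cycle Cy3 intensity over its summed buffer-cycle Cy3 intensity.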
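Also: ATP exposure 15 min at 22 °C before imaging.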

| Sequence | switch fluorescence ratio |
| --- | --- |
| GTCAAAAATT | 0.987 ± 0.01 |
| GTCAAAGCCA | 1.02 ± 0.019 |
| GTCAACTGAG | 1.05 ± 0.04 |
| GTCAATTGCA | 0.999 ± 0.026 |
| GTCACGTATT | 1.16 ± 0.0099 |
| GTCACTAGTG | 1.028 ± 0.0026 |
| GTCAGAGTCT | 1.05 ± 0.021 |
| GTCAGAGTGG | 0.991 ± 0.024 |
| GTCAGCCTTT | 0.983 ± 0.025 |
| GTCAGCTAAC | 1.48 ± 0.053 |
| GTCAGCTTGC | 1 ± 0.025 |
| GTCAGGAATT | 0.9981 ± 0.0062 |
| GTCAGTGCTA | 1.0169 ± 0.001 |
| GTCAGTGGCT | 0.998 ± 0.018 |
| GTCAGTGGGC | 0.998 ± 0.0052 |
| GTCATAACAT | 1.018 ± 0.0065 |
| GTCATAGGTG | 1.28 ± 0.087 |
| GTCATTGGAG | 1.008 ± 0.0079 |
| GTCCTTGGTC | 0.982 ± 0.019 |
| GTCGAGGGGG | 0.997 ± 0.05 |
| GTCGATTAGT | 0.944 ± 0.033 |
| GTCGATTGGG | 1.001 ± 0.0012 |
| GTCGGACTAG | 1 ± 0.051 |

| Sequence | switch fluorescence ratio |
| --- | --- |
| GTCGGAGTCA | 1 ± 0.034 |
| GTCGGCGTAG | 1.03 ± 0.036 |
| GTCGGCGTTG | 0.9916 ± 0.0027 |
| GTCGGGAGCC | 0.967 ± 0.018 |
| GTCGGGCCAG | 0.985 ± 0.025 |
| GTCGGGGAAG | 0.958 ± 0.013 |
| GTCGGGGGG | 1.01 ± 0.026 |
| GTCGGGGGTA | 0.992 ± 0.039 |
| GTCGTATTGG | 1.03 ± 0.03 |
| GTCGTATTTG | 0.9822 ± 0.0057 |
| GTCGTCCGGG | 0.986 ± 0.028 |
| GTCGTCTTAC | 1.05 ± 0.045 |
| GTCGTGGCGA | 1.01 ± 0.02 |
| GTCGTGGTTT | 0.982 ± 0.037 |
| GTCGTTAGGG | 0.963 ± 0.051 |
| GTCGTTGTTC | 1.03 ± 0.027 |
| GTCGTTTGCG | 1.012 ± 0.0048 |
| GTCGTTTTGG | 0.99 ± 0.029 |
| GTCTAACTGT | 0.994 ± 0.029 |
| GTCTAAGGAT | 0.995 ± 0.042 |
| GTCTATATTT | 1 ± 0.044 |
| GTCTGAACGG | 0.9762 ± 0.0081 |
| GTCTGTTATT | 1.01 ± 0.035 |

| Sequence | switch fluorescence ratio |
| --- | --- |
| GTCTTAACGA | 0.981 ± 0.015 |
| GTCTTGGGGG | 1 ± 0.023 |
| GTGAAAATTT | 1.07 ± 0.083 |
| GTGAAACGGG | 0.998 ± 0.07 |
| GTGAAAGCGT | 0.961 ± 0.016 |
| GTGAAAGTCG | 0.9929 ± 0.0024 |
| GTGAACAGCA | 1.01 ± 0.025 |
| GTGAAGATTG | 1.02 ± 0.032 |
| GTGAATAGGG | 0.989 ± 0.028 |
| GTGAATGTAT | 1.02 ± 0.021 |
| GTGAATTTGT | 1.09 ± 0.15 |
| GTGACATTAA | 0.998 ± 0.03 |
| GTGACCGGCG | 1.03 ± 0.053 |
| GTGACTATGG | 0.96325 ± 0.00082 |
| GTGAGAGGGG | 1.008 ± 0.0069 |
| GTGAGGCGGT | 0.968 ± 0.017 |
| GTGAGGGATT | 1 ± 0.022 |
| GTGAGGGGTA | 0.975 ± 0.033 |
| GTGAGGGTGA | 1 ± 0.011 |
| GTGAGTCTAA | 0.993 ± 0.018 |
| GTGAGTGTCA | 1 ± 0.03 |
| GTGAGTGTTT | 0.99 ± 0.011 |
| GTGATAAATG | 0.956 ± 0.021 |

| Sequence | switch fluorescence ratio |
| --- | --- |
| GTGATAAGAC | 1.042 ± 0.0085 |
| GTGATAGGGC | 0.999 ± 0.025 |
| GTGATATTGT | 1.01 ± 0.011 |
| GTGATCGGGT | 1.02 ± 0.015 |
| GTGATCTGGG | 0.9689 ± 0.0053 |
| GTGATGCTTG | 0.998 ± 0.037 |
| GTGATGGGGA | 0.9895 ± 0.0095 |
| GTGATTACTG | 0.97 ± 0.011 |
| GTGATTAGGG | 0.968 ± 0.022 |
| GTGATTTAGA | 0.9969 ± 0.0054 |
| GTGATTTGGG | 1.01 ± 0.0076 |
| GTGCAAGGGT | 1.01 ± 0.029 |
| GTGCCATGTT | 0.9816 ± 0.0083 |
| GTGCCCAACG | 1.03 ± 0.03 |
| GTGCGACGTT | 0.965 ± 0.08 |
| GTGCTATCTA | 1 ± 0.023 |
| GTGCTCTTAC | 1.11 ± 0.014 |
| GTGCTTCTTA | 0.992 ± 0.025 |
| GTGCTTCTTT | 0.99 ± 0.011 |
| GTGGAAGTTG | 0.949 ± 0.041 |
| GTGGAATAAT | 0.981 ± 0.015 |
| GTGGACATAT | 0.991 ± 0.015 |
| GTGGACTAGT | 1.02 ± 0.026 |

| Sequence | switch fluorescence ratio |
| --- | --- |
| GTGGAGGGGA | 1.01 ± 0.043 |
| GTGGATTTGG | 1.019 ± 0.0056 |
| GTGGATTTTC | 1 ± 0.062 |
| GTGGCAGGGG | 1.36 ± 0.63 |
| GTGGCATACT | 1.12 ± 0.016 |
| GTGGCATGGG | 1 ± 0.014 |
| GTGGCCCTAT | 0.998 ± 0.027 |
| GTGGCTGGGA | 0.974 ± 0.026 |
| GTGGCTTGGG | 1.02 ± 0.018 |
| GTGGGAAAGG | 0.9715 ± 0.0057 |
| GTGGGAACAG | 0.979 ± 0.011 |
| GTGGGAATTA | 0.996 ± 0.025 |
| GTGGGACGAG | 0.971 ± 0.018 |
| GTGGGAGGGA | 1.02 ± 0.043 |
| GTGGGAGGTT | 0.948 ± 0.036 |
| GTGGGATCCG | 0.998 ± 0.014 |
| GTGGGATGAG | 1.01 ± 0.022 |
| GTGGGATGGG | 0.973 ± 0.019 |
| GTGGGCCGAG | 1.021 ± 0.0076 |
| GTGGGCGCCG | 0.987 ± 0.023 |
| GTGGGCGGGG | 0.979 ± 0.031 |
| GTGGGGAATA | 1.03 ± 0.043 |
| GTGGGGAGCT | 1.03 ± 0.061 |

| Sequence | switch fluorescence ratio |
| --- | --- |
| GTGGGGATGT | 1.01 ± 0.024 |
| GTGGGGCAAA | 1 ± 0.043 |
| GTGGGGCATA | 0.982 ± 0.017 |
| GTGGGGCCGC | 0.979 ± 0.036 |
| GTGGGGGCCC | 0.993 ± 0.017 |
| GTGGGGGCGG | 1.01 ± 0.022 |
| GTGGGGGCTG | 0.9878 ± 0.0047 |
| GTGGGGGGTC | 1.01 ± 0.062 |
| GTGGGGTGGG | 0.986 ± 0.029 |
| GTGGGTGGGA | 0.982 ± 0.046 |
| GTGGGTGTCC | 1.01 ± 0.017 |
| GTGGGTTGGA | 0.993 ± 0.033 |
| GTGGGTTTGG | 0.999 ± 0.049 |
| GTGGTAAAAG | 0.984 ± 0.013 |
| GTGGTAAGAT | 0.991 ± 0.037 |
| GTGGTAAGCG | 0.995 ± 0.065 |
| GTGGTACGTA | 1.02 ± 0.06 |
| GTGGTACTGG | 0.9683 ± 0.0066 |
| GTGGTAGGCG | 0.975 ± 0.014 |
| GTGGTAGGGT | 1.02 ± 0.02 |
| GTGGTATCCG | 0.973 ± 0.058 |
| GTGGTATCGG | 0.989 ± 0.029 |
| GTGGTATGTC | 1.01 ± 0.07 |

| Sequence | switch fluorescence ratio |
| --- | --- |
| GTGGTCGAGT | 0.989 ± 0.01 |
| GTGGTCGGCA | 0.996 ± 0.011 |
| GTGGTCTTGA | 0.981 ± 0.028 |
| GTGGTGGCAG | 0.979 ± 0.015 |
| GTGGTTATGC | 1.02 ± 0.033 |
| GTGGTTCTAT | 0.996 ± 0.026 |
| GTGGTTGGGA | 0.992 ± 0.029 |
| GTGGTTTATA | 1.01 ± 0.021 |
| GTGTAACAGA | 1 ± 0.013 |
| GTGTAAGAGA | 1.006 ± 0.0081 |
| GTGTAAGCAG | 0.995 ± 0.01 |
| GTGTAAGGTT | 0.9935 ± 0.0066 |
| GTGTAATAAG | 0.99 ± 0.031 |
| GTGTAATAGG | 0.9713 ± 0.0056 |
| GTGTAATAGT | 0.996 ± 0.021 |
| GTGTAATTTG | 0.994 ± 0.036 |
| GTGTAATTTT | 0.993 ± 0.032 |
| GTGTAGAAAT | 0.9834 ± 0.0068 |
| GTGTATAGGC | 1.09 ± 0.038 |

— the supplement of paper PMC10126150
